The target in the test is FcRI on U937 cells (human) (UniProt P12314). As to the kind of experiment: unlabeled protein competing with the same 125I-labeled protein for binding to IFN-γ-treated U937 cells.
FcRI on U937 cells (human), sequence (P12314 16-374): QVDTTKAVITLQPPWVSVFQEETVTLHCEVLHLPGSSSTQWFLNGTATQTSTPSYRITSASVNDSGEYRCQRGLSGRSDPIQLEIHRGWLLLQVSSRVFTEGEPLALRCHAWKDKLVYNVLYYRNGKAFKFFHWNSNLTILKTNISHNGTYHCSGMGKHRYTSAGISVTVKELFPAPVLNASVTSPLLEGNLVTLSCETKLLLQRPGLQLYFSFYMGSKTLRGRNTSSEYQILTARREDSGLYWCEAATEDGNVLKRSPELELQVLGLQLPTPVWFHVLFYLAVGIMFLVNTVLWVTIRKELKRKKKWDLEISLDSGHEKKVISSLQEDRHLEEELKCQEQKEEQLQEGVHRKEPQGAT

In turn, “hCTLA4-IgG1 (from UniProt P16410 37-161) (Fc fusion)” showed an IC50 of 70 nM. As for human IgG1 (antibody), the figure is 75 nM.

Values taken from patent US20050196402A1.
